Here are results for 2 substances from paper PMC6511868.

The target of assay [1] is uL23 as bait of the co-IP of Figure 1C (tag not told) (UniProt P04456). The assay is described as follows: co-immunoprecipitation, western blot quantification. The note with it: parent: 100.
A further assay deals with uS3-GFP (S. cerevisiae) (UniProt P05750). Put plainly: co-IP; yeast lysates; GFP-Trap_A beads (GFP-tagged baits) or IgG-Sepharose (TAP-tagged baits), 3 h at 4°C, western blot; wild type and the strains sup45-2, rat8-2, rat7ΔN shifted to 37°C for 1 h; also 0.5 mg/ml cycloheximide for 30 min; also high copy RLI1.
Sequence of UniProt P05750 (P05750 whole entry): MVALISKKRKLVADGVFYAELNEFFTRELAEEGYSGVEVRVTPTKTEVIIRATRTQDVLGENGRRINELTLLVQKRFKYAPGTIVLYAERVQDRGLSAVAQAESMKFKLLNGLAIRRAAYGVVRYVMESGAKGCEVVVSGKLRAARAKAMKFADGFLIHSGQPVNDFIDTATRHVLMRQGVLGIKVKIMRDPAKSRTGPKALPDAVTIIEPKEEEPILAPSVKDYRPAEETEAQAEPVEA

Sequence of UniProt P04456 (P04456 whole entry): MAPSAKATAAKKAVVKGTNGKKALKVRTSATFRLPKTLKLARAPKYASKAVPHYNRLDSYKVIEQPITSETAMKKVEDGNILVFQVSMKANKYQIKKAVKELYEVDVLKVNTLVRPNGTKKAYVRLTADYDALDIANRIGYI

As to “eukaryotic release factor 1 (eRF1) (from UniProt P12385) sup45-2”, the percent of parent in assay [1] was determined as 46%.

As to “mutated eRF1 protein sup45-2 (from UniProt P12385 1-437) (natural protein)”, in the assay with uS3-GFP (S. cerevisiae), the co-precipitation relative to wild-type eRF1 is 0.25 of wild type and the co-precipitation relative to wild-type eRF1, with high copy RLI1 is over 60%.
